Reference: paper PMC5715728

Target: major capsid protein (MCP) (human cytomegalovirus (HCMV) strain AD169) (UniProt P16729)
Experiment: cryo-EM structure

Substance: smallest capsid protein (SCP) (from UniProt Q7M6N6 1-75) (natural protein)
- stoichiometry N: 1
